{"source": "patent US20100322948A1", "about": "“Bone morphogenetic protein (BMP)-binding domains of proteins of the repulsive guidance molecule (RGM) protein family and functional fragments thereof, and use of same” (ABBOTT GMBH & CO. KG, priority 2007, published 2010)", "molecules": {"B1": {"name": "fragment #786: Fc fusion protein of human RGM A amino acids 47-168 (protein)", "chain": "PCKILKCNSEFWSATSGSHAPASDDTPEFCAALRSYALCTRRTARTCRGDLAYHSAVHGIEDLMSQHNCSKDGPTSQPRLRTLPPAGDSQERSDSPEICHYEKSFHKHSATPNYTHCGLFGD", "modifications": "left off: small tags and cut ends; a dimerising Fc or GST"}}, "molecular_target": "T1, BMP-4 (Homo sapiens, UniProt P12644)", "T1 construct": "purchased R&D Systems 314-BM", "T1 sequence (P12644 293-408)": "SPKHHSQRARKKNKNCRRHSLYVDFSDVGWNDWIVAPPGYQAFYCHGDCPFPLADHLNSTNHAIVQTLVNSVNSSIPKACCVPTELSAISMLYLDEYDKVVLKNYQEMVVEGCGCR", "experiment": "In vitro interaction test, variant A: immobilized BMP-4, detection of binding of RGMA-Fc fusion proteins", "conditions": "Working Example 3, FIG. 5", "description": "Test Method 4: In Vitro Interaction Test for Determining the Interaction between RGMA and BMP-2 and -4\nThe interaction tests were carried out as described below:\nVariant A: Immobilization of the BMP-2/ or -4 Protein and Detection of the Binding of Various RGMA-Fc Fusion Proteins\n1. Plate: • Immunoplate Cert. MaxiSorp F96 (Nunc, 439454)\nRecombinant human BMP-2, Catalog No.: 355-BM, Company: R&D Systems; Recombinant human RGM A, R&D Systems; Prod. #2495-RM, or\nRecombinant human BMP-4, Catalog No.: 314-BM, Company: R&D Systems; • Concentration: 10 μg/mL • Volume used: 2.5 μg/mL in Na2CO3; addition: 50 μL per well • 1 hour at 37° C. in damp chamber\n3. Washing step: • Wash 3× with PBS/[…] Tween 20\n4. Blocking: • 3% BSA in PBS/0.02% Tween, 1 hour at 37° C. in damp chamber; addition: 200 μL per well\nRGMA-Fc fragments, • 1 μg/mL initial concentration, then dilution down to 1:2 using PBS/0.02% Tween20 • […] • 1 hour at 37° C. in damp chamber\n6. Washing step: • Wash 3× with PBS/0.02% Tween 20\nBiotin anti-human Fc (R&D-Systems), Catalog No.: 709065; 1 mg/mL; • 1:200 in 0.6% BAS/PBS-T (0.02% Tween) • Addition: 50 μL per well • 1 hour at 37° C. in damp chamber\n8. Secondary antibody: Strep. POD (Roche); Catalog No.: 11089153001 • 500 U; 1:5000 in 0.6% BAS/PBS-T (0.02% Tween) • Addition: 50 μL per well • 1 hour at 37° C. in damp chamber\n9. Washing step: • Wash 3× with PBS/0.02% Tween 20\nImmunoPure TMB substrate kit; Pierce, #34021 • Development period: approximately 1-30 minutes • 1:1 mixture of […]; addition: 50 μL per well\n11. Stop: • 2.5 M H2SO4; addition: 50 μL per well\nThe test was conducted according to test method 4, variant A above, with immobilization of BMP-4 (1 mg/mL). The binding of the fusion proteins was detected using anti-human-Fc or anti-Myc anti-rabbit (Invitrogen) antibodies.\nThe test was conducted according to test method 4, variant A above, with immobilization of BMP-4 (1 mg/mL). The binding of the fusion proteins was detected using anti-human-antibodies."}
{"molecule": "B1", "values": [{"measurement": "binding to immobilized BMP-4, comparison among fragments", "result": "most strongly"}, {"measurement": "binding to immobilized BMP-4", "setting": "detection anti-human-Fc or anti-Myc", "result": "Significant concentration-dependent binding"}]}
